Laboratory results: patent CN105330739A

Molecular target: huVEGF 165 (human)
Assay: indirect ELISA, huVEGF coated at 0.5 ug/ml, four-parameter fit

Chain of huVEGF 165 (human) (chain, as listed by the source, form in doubt): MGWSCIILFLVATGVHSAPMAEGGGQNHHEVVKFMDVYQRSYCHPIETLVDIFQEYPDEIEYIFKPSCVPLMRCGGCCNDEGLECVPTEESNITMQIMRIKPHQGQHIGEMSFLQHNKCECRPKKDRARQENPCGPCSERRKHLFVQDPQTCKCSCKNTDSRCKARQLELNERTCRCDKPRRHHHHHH

商品化贝伐单抗(avastin) (antibody)
EC50: 0.19 nM
